# Results: the supplement of paper PMC9112550, “Optimization of the antimicrobial peptide Bac7 by deep mutational scanning” (BMC Biology, 2022)
# System: Escherichia coli TOP10
# Assay: shrunken log2 fold change of peptide-encoding DNA abundance (4.5 h post-induction vs induction); higher = less antimicrobial activity (less host growth inhibition)
# Conditions: time post-induction: 4.5 h; library: site-saturation at positions 5, 18, 19, 20
# 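Note: peptides expressed intracellularly from a pBAD plasmid library in pooled LB shake-flask culture, induced with 0.3% L-arabinose, DNA abundance read by NGS, three biological replicates, DESeq2 with apeglm shrinkage.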
row,Sequence,shrunken log2 fold change
1,RRIRNRPPRLPRPRPRPMHPPRP,-0.212
2,RRIRYRPPRLPRPRPRPMIWPRP,-0.00195
3,RRIRQRPPRLPRPRPRPGDQPRP,-0.0566
4,RRIRPRPPRLPRPRPRPKFCPRP,0.189
5,RRIRNRPPRLPRPRPRPSIYPRP,-0.449
6,RRIRIRPPRLPRPRPRPENEPRP,-0.428
7,RRIRPRPPRLPRPRPRPPPGPRP,0.816
8,RRIRQRPPRLPRPRPRPRQTPRP,0.161
9,RRIRCRPPRLPRPRPRPTAPPRP,0.826
10,RRIRHRPPRLPRPRPRPHMTPRP,-0.0109
11,RRIRMRPPRLPRPRPRPTITPRP,0.114
12,RRIRLRPPRLPRPRPRPLYWPRP,-0.372
13,RRIRMRPPRLPRPRPRPDVQPRP,-0.00142
14,RRIRSRPPRLPRPRPRPCNFPRP,-0.702
15,RRIRCRPPRLPRPRPRPAAPPRP,0.668
16,RRIRARPPRLPRPRPRPWTRPRP,0.27
17,RRIRDRPPRLPRPRPRPEIEPRP,0.522
18,RRIRSRPPRLPRPRPRPMDAPRP,-0.0809
19,RRIRLRPPRLPRPRPRPAMLPRP,-0.0377
20,RRIRSRPPRLPRPRPRPGNFPRP,0.00825
21,RRIRPRPPRLPRPRPRPKPYPRP,-0.0782
22,RRIRKRPPRLPRPRPRPFPPPRP,0.33
23,RRIRPRPPRLPRPRPRPPPYPRP,0.0995
24,RRIRWRPPRLPRPRPRPRFNPRP,0.0235
25,RRIRMRPPRLPRPRPRPCDNPRP,0.0146

row,Sequence,shrunken log2 fold change
1,RRIRIRPPRLPRPRPRPIYCPRP,-0.0326
2,RRIRDRPPRLPRPRPRPAVMPRP,-0.00993
3,RRIRRRPPRLPRPRPRPPEEPRP,1.37
4,RRIRCRPPRLPRPRPRPHHFPRP,-0.219
5,RRIRGRPPRLPRPRPRPNEHPRP,0.435
6,RRIRHRPPRLPRPRPRPYVCPRP,0.0124
7,RRIRCRPPRLPRPRPRPKWSPRP,0.0876
8,RRIRPRPPRLPRPRPRPPANPRP,0.418
9,RRIRVRPPRLPRPRPRPVTYPRP,-0.288
10,RRIRGRPPRLPRPRPRPYSCPRP,0.131
11,RRIRVRPPRLPRPRPRPHFCPRP,-0.0628
12,RRIRGRPPRLPRPRPRPHTNPRP,0.221
13,RRIRNRPPRLPRPRPRPSHRPRP,0.0906
14,RRIRTRPPRLPRPRPRPHMLPRP,-0.389
15,RRIRIRPPRLPRPRPRPQTKPRP,0.13
16,RRIRCRPPRLPRPRPRPGIPPRP,-0.126
17,RRIRLRPPRLPRPRPRPILVPRP,-0.157
18,RRIRDRPPRLPRPRPRPEEAPRP,2.05
19,RRIRVRPPRLPRPRPRPKSHPRP,1.35
20,RRIRIRPPRLPRPRPRPEPTPRP,0.659
21,RRIRRRPPRLPRPRPRPGFKPRP,0.0975
22,RRIRFRPPRLPRPRPRPWVQPRP,-0.116
23,RRIRARPPRLPRPRPRPMSVPRP,0.121
24,RRIRWRPPRLPRPRPRPENHPRP,-0.176
25,RRIRWRPPRLPRPRPRPHLWPRP,0.191

row,Sequence,shrunken log2 fold change
1,RRIRRRPPRLPRPRPRPGWCPRP,0.422
2,RRIRMRPPRLPRPRPRPENAPRP,0.0504
3,RRIRARPPRLPRPRPRPKPYPRP,0.0727
4,RRIRCRPPRLPRPRPRPYLAPRP,-0.44
5,RRIRFRPPRLPRPRPRPSFTPRP,0.587
6,RRIRMRPPRLPRPRPRPHIPPRP,-0.289
7,RRIRDRPPRLPRPRPRPIMCPRP,-0.0425
8,RRIRCRPPRLPRPRPRPAEVPRP,-0.106
9,RRIRVRPPRLPRPRPRPHLEPRP,-0.133
10,RRIRRRPPRLPRPRPRPFRKPRP,-0.00961
11,RRIRNRPPRLPRPRPRPSKRPRP,-0.0331
12,RRIRDRPPRLPRPRPRPGRTPRP,-0.0421
13,RRIRGRPPRLPRPRPRPMVWPRP,0.156
14,RRIRVRPPRLPRPRPRPFLLPRP,-0.769
15,RRIRRRPPRLPRPRPRPVYNPRP,-0.154
16,RRIRNRPPRLPRPRPRPEDRPRP,0.0787
17,RRIRLRPPRLPRPRPRPNRSPRP,-0.0205
18,RRIRIRPPRLPRPRPRPALFPRP,-0.139
19,RRIRRRPPRLPRPRPRPCQQPRP,-0.0197
20,RRIRFRPPRLPRPRPRPLGIPRP,-0.869
21,RRIRYRPPRLPRPRPRPNLAPRP,-0.0223
22,RRIRGRPPRLPRPRPRPCHPPRP,-0.119
23,RRIRQRPPRLPRPRPRPSDWPRP,-0.131
24,RRIRTRPPRLPRPRPRPAYQPRP,-0.0436
25,RRIRGRPPRLPRPRPRPKSVPRP,0.591

row,Sequence,shrunken log2 fold change
1,RRIRCRPPRLPRPRPRPRFWPRP,0.167
2,RRIRCRPPRLPRPRPRPIFIPRP,-0.339
3,RRIRYRPPRLPRPRPRPRIAPRP,0.00898
4,RRIRTRPPRLPRPRPRPPVEPRP,0.0458
5,RRIRARPPRLPRPRPRPHYRPRP,0.0684
6,RRIRLRPPRLPRPRPRPFQYPRP,-0.182
7,RRIRCRPPRLPRPRPRPWTAPRP,-0.212
8,RRIRARPPRLPRPRPRPWEGPRP,0.209
9,RRIRIRPPRLPRPRPRPNCIPRP,-0.408
10,RRIRTRPPRLPRPRPRPHWYPRP,-0.135
11,RRIRHRPPRLPRPRPRPVGAPRP,3.01
12,RRIRPRPPRLPRPRPRPDFHPRP,-0.26
13,RRIRQRPPRLPRPRPRPWCGPRP,-0.00744
14,RRIRPRPPRLPRPRPRPQVDPRP,-0.0328
15,RRIRGRPPRLPRPRPRPKQHPRP,0.906
16,RRIRPRPPRLPRPRPRPHAVPRP,0.0549
17,RRIRQRPPRLPRPRPRPIYCPRP,-0.0315
18,RRIRGRPPRLPRPRPRPPKGPRP,0.673
19,RRIRRRPPRLPRPRPRPLNVPRP,-0.0701
20,RRIRTRPPRLPRPRPRPHCKPRP,-0.222
21,RRIRWRPPRLPRPRPRPSFAPRP,0.28
22,RRIRRRPPRLPRPRPRPGWQPRP,0.381
23,RRIRERPPRLPRPRPRPQWVPRP,0.0428
24,RRIRIRPPRLPRPRPRPWSIPRP,-0.211
25,RRIRHRPPRLPRPRPRPNTEPRP,-0.038

row,Sequence,shrunken log2 fold change
1,RRIRKRPPRLPRPRPRPQLHPRP,0.0197
2,RRIRHRPPRLPRPRPRPWIAPRP,0.143
3,RRIRMRPPRLPRPRPRPTMGPRP,0.253
4,RRIRSRPPRLPRPRPRPLSRPRP,0.0301
5,RRIRQRPPRLPRPRPRPCFTPRP,-0.684
6,RRIRWRPPRLPRPRPRPGWEPRP,0.292
7,RRIRSRPPRLPRPRPRPSQNPRP,-0.321
8,RRIRSRPPRLPRPRPRPPVWPRP,0.48
9,RRIRARPPRLPRPRPRPFVKPRP,0.0302
10,RRIRKRPPRLPRPRPRPNTKPRP,-0.391
11,RRIRARPPRLPRPRPRPTPDPRP,0.848
12,RRIRWRPPRLPRPRPRPGARPRP,0.659
13,RRIRSRPPRLPRPRPRPMNTPRP,-0.647
14,RRIRYRPPRLPRPRPRPKQFPRP,-0.155
15,RRIRVRPPRLPRPRPRPTFNPRP,0.127
16,RRIRGRPPRLPRPRPRPKHIPRP,-0.00571
17,RRIRTRPPRLPRPRPRPWHIPRP,-0.115
18,RRIRHRPPRLPRPRPRPPSEPRP,-0.0921
19,RRIRYRPPRLPRPRPRPIWVPRP,-0.0696
20,RRIRCRPPRLPRPRPRPVGKPRP,0.0374
21,RRIRMRPPRLPRPRPRPNLSPRP,-0.436
22,RRIRVRPPRLPRPRPRPGYSPRP,-0.553
23,RRIRIRPPRLPRPRPRPMRPPRP,0.194
24,RRIRERPPRLPRPRPRPARLPRP,0.361
25,RRIRPRPPRLPRPRPRPNFPPRP,0.0652

row,Sequence,shrunken log2 fold change
1,RRIRVRPPRLPRPRPRPDSSPRP,-0.0452
2,RRIRLRPPRLPRPRPRPHQLPRP,-0.25
3,RRIRVRPPRLPRPRPRPREMPRP,0.0631
4,RRIRERPPRLPRPRPRPWNWPRP,-0.131
5,RRIRSRPPRLPRPRPRPSLAPRP,0.164
6,RRIRYRPPRLPRPRPRPSFNPRP,-0.756
7,RRIRCRPPRLPRPRPRPELEPRP,0.285
8,RRIRFRPPRLPRPRPRPPIHPRP,-0.255
9,RRIRFRPPRLPRPRPRPFYDPRP,-0.0631
10,RRIRARPPRLPRPRPRPCIKPRP,0.126
11,RRIRYRPPRLPRPRPRPHWDPRP,-0.92
12,RRIRWRPPRLPRPRPRPTRPPRP,0.855
13,RRIRIRPPRLPRPRPRPPVGPRP,0.59
14,RRIRQRPPRLPRPRPRPRVRPRP,0.329
15,RRIRWRPPRLPRPRPRPGVCPRP,0.681
16,RRIRYRPPRLPRPRPRPMLRPRP,-0.256
17,RRIRPRPPRLPRPRPRPDLDPRP,0.114
18,RRIRCRPPRLPRPRPRPFMFPRP,-0.421
19,RRIRIRPPRLPRPRPRPEYVPRP,-0.196
20,RRIRARPPRLPRPRPRPFICPRP,-0.1
21,RRIRDRPPRLPRPRPRPACFPRP,0.664
22,RRIRRRPPRLPRPRPRPRCEPRP,0.342
23,RRIRMRPPRLPRPRPRPFSVPRP,-0.0472
24,RRIRERPPRLPRPRPRPWRFPRP,-0.117
25,RRIRKRPPRLPRPRPRPCCRPRP,0.146
